From patent US20140087995A1 (published 2014)
Numbered stars: 1 amine (or outer) side, 2 acyl side, 3 side chain; on linkers, the order of the positions; unused ones are H or OH. Bridge positions count the residues as written; N and C are the ends. * marks the point of attachment. C20 diacid = O=C(O)CCCCCCCCCCCCCCCCCCC(=O)*; γGlu = O=C(O)[C@H](CCC(=O)[*:2])N[*:1]

T1: human calcitonin receptor (human, UniProt P30988 25-474)
T1 construct: whole, on cells; Cell membranes of a stably transfected BHK cell line (Assay VII); also called hCTR; hCT
T1 sequence (looked up): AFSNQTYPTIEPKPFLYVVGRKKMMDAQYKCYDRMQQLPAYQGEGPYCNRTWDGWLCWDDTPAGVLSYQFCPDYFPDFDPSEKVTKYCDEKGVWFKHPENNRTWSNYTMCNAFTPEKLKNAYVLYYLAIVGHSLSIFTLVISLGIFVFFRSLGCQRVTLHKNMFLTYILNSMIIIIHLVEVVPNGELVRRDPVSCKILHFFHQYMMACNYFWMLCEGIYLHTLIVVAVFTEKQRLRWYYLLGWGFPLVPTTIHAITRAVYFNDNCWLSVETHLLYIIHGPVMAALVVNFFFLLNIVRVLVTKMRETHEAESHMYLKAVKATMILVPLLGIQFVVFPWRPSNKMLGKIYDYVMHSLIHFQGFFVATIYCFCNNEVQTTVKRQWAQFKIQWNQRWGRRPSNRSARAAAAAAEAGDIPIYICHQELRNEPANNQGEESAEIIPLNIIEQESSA

T2: rat calcitonin receptor (rat, UniProt P32214 25-516)
T2 construct: whole, on cells; Cell membranes of transiently transfected BHK tk'ts 13 cells (Assay VIII); also called rCTR; rCT
T2 sequence (looked up): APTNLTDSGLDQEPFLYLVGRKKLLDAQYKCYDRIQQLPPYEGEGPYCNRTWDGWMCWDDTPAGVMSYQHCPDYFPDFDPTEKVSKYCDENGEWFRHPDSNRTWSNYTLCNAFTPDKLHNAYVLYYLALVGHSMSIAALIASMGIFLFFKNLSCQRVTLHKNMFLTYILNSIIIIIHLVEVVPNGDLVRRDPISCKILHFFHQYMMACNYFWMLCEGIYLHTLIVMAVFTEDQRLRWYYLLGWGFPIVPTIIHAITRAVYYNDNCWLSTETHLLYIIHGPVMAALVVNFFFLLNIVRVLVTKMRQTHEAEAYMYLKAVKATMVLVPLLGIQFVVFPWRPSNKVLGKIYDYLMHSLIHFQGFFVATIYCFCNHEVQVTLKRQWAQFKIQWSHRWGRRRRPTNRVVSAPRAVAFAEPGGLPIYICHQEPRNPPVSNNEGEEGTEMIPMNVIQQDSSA

T3: rat amylin receptor (rat calcitonin receptor + rat RAMP 3) (rat, UniProt P32214 25-516; Q9JJ73 23-147)
T3 construct: whole, on cells; Cell membranes of transiently transfected BHK tk'ts 13 cells (Assay VI); also called rAmylin-R; rat amylin 3(a) receptor
T3 sequence (looked up) 1: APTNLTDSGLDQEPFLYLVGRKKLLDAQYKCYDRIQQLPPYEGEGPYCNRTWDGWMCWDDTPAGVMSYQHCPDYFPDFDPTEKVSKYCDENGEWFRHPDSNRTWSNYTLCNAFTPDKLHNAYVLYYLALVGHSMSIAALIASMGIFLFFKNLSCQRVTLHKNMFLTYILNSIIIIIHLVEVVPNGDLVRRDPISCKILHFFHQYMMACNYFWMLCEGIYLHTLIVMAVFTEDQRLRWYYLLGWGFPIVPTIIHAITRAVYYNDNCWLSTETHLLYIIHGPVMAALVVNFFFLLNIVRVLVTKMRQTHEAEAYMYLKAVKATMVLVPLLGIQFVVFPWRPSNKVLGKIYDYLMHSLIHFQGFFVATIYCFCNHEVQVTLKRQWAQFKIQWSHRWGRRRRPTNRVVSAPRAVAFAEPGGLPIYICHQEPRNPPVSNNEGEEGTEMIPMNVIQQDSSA
T3 sequence (looked up) 2: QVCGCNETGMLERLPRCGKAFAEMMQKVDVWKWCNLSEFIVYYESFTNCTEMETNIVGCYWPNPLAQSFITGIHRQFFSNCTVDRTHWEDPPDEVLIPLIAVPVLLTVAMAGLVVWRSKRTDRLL


What was measured:
[1] = biological target: T1, human calcitonin receptor; experiment: ratio IC50 human calcitonin receptor / IC50 human amylin receptor
Experimental: The resulting pellet was resuspended, homogenized and centrifuged (20.000 rpm, 15 min) in a buffer containing 20 mM Na-HEPES and 0.1 mM EDTA (pH 7.4, buffer 2). The resulting pellet was resuspended in buffer 2 and protein concentration was measured (BCA protein Assay, Pierce). The homogenate was kept cold during the whole procedure. The membranes were kept at −80° C. until use. The assay was performed in a 384 well Optiplate (PerkinElmer) in a total volume of 40 ul. Membranes were mixed with SPA beads. Final concentration of membranes 35 ng/μL final and SPA beads was 0.05 mg/well. Test-compounds were dissolved in DMSO and further diluted in assay buffer (50 mM Hepes, pH 7.4, 1 mM CaCl2, 5 mM MgCl₂, 0.1% OA and 0.02% Tween20). […] The final mixture was incubated with shaking at 400 rpm for 120 min at 25° C. prior to centrifugation (1500 rpm, 10 min). Samples were analyzed on TopCounter™ (Packard). The IC₅₀ was calculated using (one site binding competition analysis) GraphPad Prism5 as a measure of receptor affinity.
Membranes were prepared in the following way; the cells were rinsed with PBS and incubated with Versene for approximately 5 min before harvesting. The cells were flushed with PBS and the cell-suspension was centrifuged for 5 min at 1000 rpm. Cells were homogenized (Ultrathurrax) in a buffer containing 20 mM Na-HEPES and 10 mM EDTA (pH 7.4) and centrifuged at 20.000 rpm for 15 min. The resulting pellet was resuspended, homogenized and centrifuged (20.000 rpm, 15 min) in a buffer containing 20 mM Na-HEPES and 0.1 mM EDTA (pH 7.4, buffer 2). The resulting pellet was resuspended in buffer 2 and protein concentration was measured (BCA protein Assay, Pierce). The homogenate was kept cold during the whole procedure. The membranes were kept at −80° C. until use. Assay was performed in a 384 well Optiplate (PerkinElmer) in a total volume of 40 ul. Membranes were mixed with SPA beads.

rat calcitonin receptor [2] = biological target: T2, rat calcitonin receptor; experiment: SPA competition vs 125I-calcitonin, membranes with rat CTR (Assay VIII)
rat calcitonin receptor [3] = biological target: T2, rat calcitonin receptor; experiment: ratio IC50 rat calcitonin receptor / IC50 rat amylin receptor
[4] = biological target: T3, rat amylin receptor (rat calcitonin …); experiment: SPA competition vs 125I-rat amylin, membranes with rat CTR + rat RAMP3 (Assay VI)

| Ratio hCT/hAmylin binding [1] | IC50 (rat calcitonin receptor [2]) | Ratio rCT/rAmylin binding (rat calcitonin receptor [3]) | IC50 [4] | Binder |
| --- | --- | --- | --- | --- |
| 26 | – | – | – | {C20 diacid-γGlu-γGlu}-KCNTATCATQRLAEFLRHSSPNFGAIPSSTNVGSNTY-NH2 (disulfide 2-7; SMILES CC[C@H](C)[C@H](NC(=O)[C@H](C)NC(=O)CNC(=O)[C@H](Cc1ccccc1)NC(=O)[C@H](CC(N)=O)NC(=O)[C@@H]1CCCN1C(=O)[C@H](CO)NC(=O)[C@H](CO)NC(=O)[C@H](Cc1c[nH]cn1)NC(=O)[C@H](CCCNC(=N)N)NC(=O)[C@H](CC(C)C)NC(=O)[C@H](Cc1ccccc1)NC(=O)[C@H](CCC(=O)O)NC(=O)[C@H](C)NC(=O)[C@H](CC(C)C)NC(=O)[C@H](CCCNC(=N)N)NC(=O)[C@H](CCC(N)=O)NC(=O)[C@@H](NC(=O)[C@H](C)NC(=O)[C@@H]1CSSC[C@H](NC(=O)[C@H](CCCCN)NC(=O)CC[C@H](NC(=O)CC[C@H](NC(=O)CCCCCCCCCCCCCCCCCCC(=O)O)C(=O)O)C(=O)O)C(=O)N[C@@H](CC(N)=O)C(=O)N[C@@H]([C@@H](C)O)C(=O)N[C@@H](C)C(=O)N[C@@H]([C@@H](C)O)C(=O)N1)[C@@H](C)O)C(=O)N1CCC[C@H]1C(=O)N[C@@H](CO)C(=O)N[C@@H](CO)C(=O)N[C@H](C(=O)N[C@@H](CC(N)=O)C(=O)N[C@H](C(=O)NCC(=O)N[C@@H](CO)C(=O)N[C@@H](CC(N)=O)C(=O)N[C@H](C(=O)N[C@@H](Cc1ccc(O)cc1)C(N)=O)[C@@H](C)O)C(C)C)[C@@H](C)O, Acylated analogue of human amylin; also called compound 15) |
| 36.7 | 95.6 nM | 93.6 | 1.02 nM | KCNTATCATQRLAEFLRHSSPNFGAIPSSTNVGSNTY (C20 diacid-gGlu-2xOEG on alpha-amino of the N-terminal residue; Cys2-Cys7 disulfide; C-terminal amide (as human amylin), Acylated analogue of human amylin; also called compound 19) |

Second part, the binder before the results:

| Binder | Ratio hCT/hAmylin binding [1] | IC50 (rat calcitonin receptor [2]) | Ratio rCT/rAmylin binding (rat calcitonin receptor [3]) | IC50 [4] |
| --- | --- | --- | --- | --- |
| KCNTATCATQRLANFLRHSSPNFGAIPSSTNVGSETY (C20 diacid-gGlu on alpha-amino of the N-terminal residue; Cys2-Cys7 disulfide; C-terminal amide (as human amylin), Acylated analogue of human amylin; also called compound 23) [N^α1-[(4S)-4-carboxy-4-(19-carboxynonadecanoylamino)butanoyl]-[Arg17,Pro21,Pro27,Glu35]-h-amylin] | 25 | 79.9 nM | 71.3 | 1.12 nM |
| KCNTATCATQRLANFLRHSSPNFGAIPSSTNVGRNTY (C20 diacid-gGlu on alpha-amino of the N-terminal residue; Cys2-Cys7 disulfide; C-terminal amide (as human amylin), Acylated analogue of human amylin; also called compound 39) [N^α1-[(4S)-4-carboxy-4-(19-carboxynonadecanoylamino)butanoyl]-[Arg17,Pro21,Pro27,Arg34]-h-amylin] | 29 | 96.4 nM | 54.5 | 1.77 nM |
